Reference: paper PMC5457438
Residue numbers refer to the chain shown, from its start.

Columns and labels:
[1] = test system: T1, MaeR D54A D54A (Lacticaseibacillus (Lactobacillus) casei BL23), ORF:6e0afda8; assay: EMSA; conditions: EMSA: 15 ul of 2.5 mM Tris-HCl pH 7.5, 100 mM NaCl, 25 mM MgCl2, 0.25 mM EDTA, 0.25 mM DTT, 10% glycerol, 1.5 ug salmon sperm DNA, 100 ng DNA, 62-375 ng …
T1 sequence: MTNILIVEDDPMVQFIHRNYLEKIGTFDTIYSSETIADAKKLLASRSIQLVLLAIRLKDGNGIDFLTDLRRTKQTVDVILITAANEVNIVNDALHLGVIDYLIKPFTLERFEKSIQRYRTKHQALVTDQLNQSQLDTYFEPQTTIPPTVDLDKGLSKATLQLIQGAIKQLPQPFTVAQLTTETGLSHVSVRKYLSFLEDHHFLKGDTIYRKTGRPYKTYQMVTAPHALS

[2] = test system: T2, MaeR D54N D54N (Lacticaseibacillus (Lactobacillus) casei BL23), ORF:6e0afda8; assay: EMSA; conditions: EMSA: 15 ul of 2.5 mM Tris-HCl pH 7.5, 100 mM NaCl, 25 mM MgCl2, 0.25 mM EDTA, 0.25 mM DTT, 10% glycerol, 1.5 ug salmon sperm DNA, 100 ng DNA, 62-375 ng …
T2 sequence: T1 sequence with A54N

[3] = test system: T3, MaeR full length (MaeRFL) (Lacticaseibacillus (Lactobacillus) casei BL23), ORF:6e0afda8; assay: EMSA; conditions: EMSA: 15 ul of 2.5 mM Tris-HCl pH 7.5, 100 mM NaCl, 25 mM MgCl2, 0.25 mM EDTA, 0.25 mM DTT, 10% glycerol, 1.5 ug salmon sperm DNA, 100 ng DNA, 62-375 ng …
T3 sequence: T1 sequence with A54D

[4] = biological target: recombinant complete cytoplasmic portion of MaeK (MaeKC) (Lactobacillus casei); assay: SEC; gel filtration chromatography of MaeKC (Superdex200 16/60); single peak

Substance	binding [1]	binding [2]	binding [3]	stoichiometry N [4]
CGTTGATTTGTTGGGTGTAACCGTCTTGTTCTCCATGTTTCCTTACCCCCAATCTTTTGTTACTTACAGCATATTGTAAGCGCTTCATCAGGGGAAGATTATTTAACTTATTAAACCATAAACCCATTTATTTAAGCGATTGTTTTACTATTCACAAGATGGTTTCTCTACTGAACAGGAGTATGATCATGAAAATAAAAGGATGGCGGCTATGGGGCT (double strand) [mae promoter (maeP-maeK intergenic region, 219 bp)]	no binding	binds	binds	–
recombinant complete cytoplasmic portion of MaeK (MaeKC) (domain or fragment)	–	–	–	2
